Results: patent US20230272055A1 (Incyte, published 2023)
Where a chain is given by its changes, count along the chain named.

T1: human mutCALR on BaF3 cells stably expressing human MPL and human mutCALR (MPL-mutCALR cells) (human)
T1 construct: also called mutant calreticulin
T1 chain: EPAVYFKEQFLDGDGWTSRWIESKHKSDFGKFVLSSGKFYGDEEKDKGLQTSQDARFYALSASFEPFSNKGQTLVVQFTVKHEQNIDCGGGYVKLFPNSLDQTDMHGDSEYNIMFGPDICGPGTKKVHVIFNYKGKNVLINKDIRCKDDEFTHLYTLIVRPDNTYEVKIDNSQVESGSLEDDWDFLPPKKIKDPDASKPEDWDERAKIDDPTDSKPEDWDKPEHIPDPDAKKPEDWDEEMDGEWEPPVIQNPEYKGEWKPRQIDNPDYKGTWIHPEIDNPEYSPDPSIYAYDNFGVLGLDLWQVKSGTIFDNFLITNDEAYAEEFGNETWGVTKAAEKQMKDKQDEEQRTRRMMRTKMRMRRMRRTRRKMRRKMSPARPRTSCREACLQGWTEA

B1: anti-mutCALR antibody clone 41 (antibody, human IgG1, lambda, V domains shown)
VH: EVQLVQSGAEVKKPGASVKVSCKVSGYTLTELSMHWVRQAPGKGLEWMGLVDPEDGETIYAQKFQGRVTMTEDTSTDTAYMELSSLRSEDTAVYYCAREEWSGDGDDAFDIWGQGTMVTVSS
VL: QSVLTQPPSVSAAPGQKVTISCSGSSSNIGSYSVSWYQQLPGTAPKLLIYDNNKRPSGIPDRFSGSNSGTSATLGITGLQTGDEADYYCGTWDSSLSAWVFGGGTKLTVLG
notes: human IgG1
B2: anti-mutCALR antibody clone 42 (antibody, human IgG1, lambda, V domains shown)
VH: B1 VH
VL: B1 VL with N52D, G75S
notes: human IgG1
B3: anti-mutCALR antibody clone 3 (antibody, human IgG1, lambda, V domains shown)
VH: EVQLVQSGAEVKKPGASVKVSCKVSGYTLTELSMQWVRQAPGKGLEWMGGFDPDDGETMYAERFQGRLTVTEDTSTDTVYMELRSLTSEDTALYFCATSPGYDFFDYWGQGTLVTVSS
VL: SYVLTQPPSVSVAPGQTARITCGGNNIGSKSVHWYQQKPGQAPVLVVYDDSDRPSGIPERFSGSNSGNTATLTINRVEAGDEADYYCQVWDSSNDLLIFGGGTKLTVLG
notes: human IgG1
B4: anti-mutCALR antibody clone 1 (antibody, human IgG1, lambda, V domains shown)
VH: B3 VH with R63K
VL: B3 VL with Q16K, N26Y, S51G, E59A, N75S, S93I, N94S, L96H, L97V, I98V
notes: human IgG1
B5: anti-mutCALR antibody clone 2 (antibody, human IgG1, lambda, V domains shown)
VH: B3 VH with R63K
VL: B3 VL with V3E, Q16K, N25D, N75S, N94I, L96H, L105V
notes: human IgG1
B6: anti-mutCALR antibody clone 55 (antibody, human IgG1, lambda, N297A)
heavy: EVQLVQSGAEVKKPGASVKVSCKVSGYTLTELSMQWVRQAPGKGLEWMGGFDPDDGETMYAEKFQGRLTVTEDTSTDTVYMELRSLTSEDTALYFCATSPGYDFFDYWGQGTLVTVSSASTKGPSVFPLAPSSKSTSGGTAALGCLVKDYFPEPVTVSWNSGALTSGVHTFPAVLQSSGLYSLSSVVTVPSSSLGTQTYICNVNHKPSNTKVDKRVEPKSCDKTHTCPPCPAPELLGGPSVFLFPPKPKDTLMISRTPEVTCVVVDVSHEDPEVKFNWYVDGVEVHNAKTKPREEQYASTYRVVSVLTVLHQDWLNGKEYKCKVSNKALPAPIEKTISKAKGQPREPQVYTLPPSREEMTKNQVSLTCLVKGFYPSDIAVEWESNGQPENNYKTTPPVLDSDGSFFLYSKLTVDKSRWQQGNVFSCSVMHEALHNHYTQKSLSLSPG
light: QSALTQPASVSGSPGQSITISCTGTSSDVGGYNYVSWYQQHPGKAPKLMIYEVSNRPSGVSNRFSGSNSGNTATLTINRVEAGDEADYYCQVWDSSNDLLIFGGGTKLTVLGQPKAAPSVTLFPPSSEELQANKATLVCLISDFYPGAVTVAWKADSSPVKAGVETTTPSKQSNNKYAASSYLSLTPEQWKSHRSYSCQVTHEGSTVEKTVAPTECS
notes: also called antibody 55
B7: anti-mutCALR antibody clone 61 (antibody, human IgG1, lambda, N297A, V domains shown)
VH: B3 VH with D55A, R63K, R84S, T87R, L93V
VL: QSALTQPASVSGSPGQSITISCTGTSSDVGGYNYVSWYQQHPGKAPKLMIYEVSNRPSGVSNRFSGSNSGNTATLTINRVEAGDEADYYCQVWDSSNDLLIFGGGTKLTVLG
B8: anti-mutCALR antibody clone 58 (antibody, human IgG1, lambda, N297A, V domains shown)
VH: B3 VH with D55E, R63K
VL: B7 VL
B9: anti-mutCALR antibody clone 56 (antibody, human IgG1, lambda, N297A, V domains shown)
VH: B3 VH with D55A, R63K
VL: B7 VL
B10: anti-mutCALR antibody clone 64 (antibody, human IgG1, lambda, N297A, V domains shown)
VH: B3 VH with G56A, R63K, R84S, T87R, L93V
VL: B7 VL
B11: anti-mutCALR antibody clone 59 (antibody, human IgG1, lambda, N297A, V domains shown)
VH: B3 VH with G56A, R63K
VL: B7 VL
B12: anti-mutCALR antibody clone 63 (antibody, human IgG1, lambda, N297A, V domains shown)
VH: B3 VH with D55E, R63K, R84S, T87R, L93V
VL: B7 VL
B13: anti-mutCALR antibody clone 62 (antibody, human IgG1, lambda, N297A, V domains shown)
VH: B3 VH with D55S, R63K, R84S, T87R, L93V
VL: B7 VL
B14: anti-mutCALR antibody clone 187 (antibody, human IgG1, lambda, N297A, V domains shown)
VH: B3 VH with D55S, R63K, R84S, T87R, L93V
VL: B3 VL with N25S, N26D, S29D, K30E, S31I, N75S, N94S, L96H
B15: anti-mutCALR antibody clone 176 (antibody, human IgG1, lambda, N297A, V domains shown)
VH: B3 VH with D55A, R63K, R84S, T87R, L93V
VL: B3 VL with N25S, N26D, S29D, K30E, S31I, N75S, V77A, E78Q, N94S, L96H
B16: anti-mutCALR antibody clone 178 (antibody, human IgG1, lambda, N297A, V domains shown)
VH: B3 VH with D55E, R63K, R84S, T87R, L93V
VL: B3 VL with N25S, N26D, S29D, K30E, S31I, N75S, V77A, E78Q, N94S, L96H
B17: anti-mutCALR antibody clone 177 (antibody, human IgG1, lambda, N297A, V domains shown)
VH: B3 VH with D55S, R63K, R84S, T87R, L93V
VL: B3 VL with N25S, N26D, S29D, K30E, S31I, N75S, V77A, E78Q, N94S, L96H
B18: anti-mutCALR antibody clone 70 (antibody, human IgG1, lambda, N297A, V domains shown)
VH: B3 VH with R63K, R84S, T87R, L93V
VL: SYVLTQPPSVSVAPGKTARITCTGTSSDVGGYNYVSWYQQKPGQAPVLVVYEVSNRPSGIPERFSGSNSGNTATLTISRVEAGDEADYYCQVWDSSNDLLIFGGGTKLTVLG
B19: anti-mutCALR antibody clone 179 (antibody, human IgG1, lambda, N297A, V domains shown)
VH: B3 VH with G56A, R63K, R84S, T87R, L93V
VL: B3 VL with N25S, N26D, S29D, K30E, S31I, N75S, V77A, E78Q, N94S, L96H
B20: anti-mutCALR antibody clone 73 (antibody, human IgG1, lambda, N297A, V domains shown)
VH: B3 VH with D55E, R63K, R84S, T87R, L93V
VL: B18 VL
B21: anti-mutCALR antibody clone 66 (antibody, human IgG1, lambda, N297A, V domains shown)
VH: B3 VH with D55A, R63K
VL: B18 VL
B22: anti-mutCALR antibody clone 71 (antibody, human IgG1, lambda, N297A, V domains shown)
VH: B3 VH with D55A, R63K, R84S, T87R, L93V
VL: B18 VL
B23: anti-mutCALR antibody clone 65 (antibody, human IgG1, lambda, N297A, V domains shown)
VH: B3 VH with R63K
VL: B18 VL
B24: anti-mutCALR antibody clone 72 (antibody, human IgG1, lambda, N297A, V domains shown)
VH: B3 VH with D55S, R63K, R84S, T87R, L93V
VL: B18 VL
B25: anti-mutCALR antibody clone 189 (antibody, human IgG1, lambda, N297A, V domains shown)
VH: B3 VH with G56A, R63K, R84S, T87R, L93V
VL: B3 VL with N25S, N26D, S29D, K30E, S31I, N75S, N94S, L96H
B26: anti-mutCALR antibody clone 188 (antibody, human IgG1, lambda, N297A, V domains shown)
VH: B3 VH with D55E, R63K, R84S, T87R, L93V
VL: B3 VL with N25S, N26D, S29D, K30E, S31I, N75S, N94S, L96H
B27: anti-mutCALR antibody clone 74 (antibody, human IgG1, lambda, N297A, V domains shown)
VH: B3 VH with G56A, R63K, R84S, T87R, L93V
VL: B18 VL
B28: anti-mutCALR antibody clone 69 (antibody, human IgG1, lambda, N297A, V domains shown)
VH: B3 VH with G56A, R63K
VL: B18 VL
B29: anti-mutCALR antibody clone 68 (antibody, human IgG1, lambda, N297A, V domains shown)
VH: B3 VH with D55E, R63K
VL: B18 VL
B30: anti-mutCALR antibody clone 67 (antibody, human IgG1, lambda, N297A, V domains shown)
VH: B3 VH with D55S, R63K
VL: B18 VL

biological target: T2, Recombinant MBP-mutCALR Type 1 fusion protein (human); assay: SPR, IgG captured, 1:1 fit, Exp. 1
T2 construct: custom made at Cepter; also called recombinant mutCALR protein
Experimental: Experiment 1: Recombinant MBP-mutCALR Type 1 fusion protein was custom made at Cepter (cepterbiopartners.com). Data for the interaction of antibodies with recombinant MBP-mutCALR Type 1 fusion protein were collected at 25° C. on a Biacore 8K instrument (Cytiva, Marlborough, Mass.), and all reagents were obtained from Cytiva unless otherwise specified. The experiments were conducted using Tris-buffered saline (pH 7.2), 0.005% Surfactant P20, 1 mM CaCl₂) as running buffer. To prepare the capture surfaces, anti-human IgG (Fc) antibodies (Product #29234600) was amine-coupled onto a CM4 chip (Product #BR100534) under standard conditions using an Amine Coupling Kit (Product #BR100050). […] The kinetics parameters were obtained by applying 1:1 binding model to fit the data from multiple-cycle injection experiments using Biacore Insight Evaluation software.

In order of falling Kd:
1. B4  14.2 nM
2. B5  7.58 nM
3. B2  6.97 nM
4. B1  4.88 nM
5. B3  3.45 nM

In order of rising koff:
1. B2  0.00452 s⁻¹
2. B3  0.00716 s⁻¹
3. B1  0.00811 s⁻¹
4. B5  0.0123 s⁻¹
5. B4  0.0196 s⁻¹

In order of rising kon:
1. B2  649000 M⁻¹ s⁻¹
2. B4  1.38e+06 M⁻¹ s⁻¹
3. B5  1.63e+06 M⁻¹ s⁻¹
4. B1  1.66e+06 M⁻¹ s⁻¹
5. B3  2.08e+06 M⁻¹ s⁻¹

Biological target: T1, human mutCALR on BaF3 cells stably …
Assay: flow cytometry, BaF3 MPL-mutCALR cells
Experimental: On the day of the assay, cells were washed and resuspended in assay buffer. Approximately 200,000 cells/well were added to 96-well plates and stained with the indicated concentration of antibodies for 30 minutes on ice. Cells were then washed and stained with goat anti-human secondary conjugated to R-phycoerythrin (R-PE) (Jackson Immuno Research Laboratories) for 30 minutes on ice. The cells were then washed and analyzed by flow cytometry.

In order of falling EC50:
1. B6  10.1 ng/mL
2. B25  10 ng/mL
3. B22  9.7 ng/mL
4. B8  8.6 ng/mL
5. B30  8.1 ng/mL
6. B11  7.7 ng/mL
7. B10  7.2 ng/mL
8. B9  6.9 ng/mL
9. B7  6.3 ng/mL
10. B23  5.9 ng/mL
11. B19  5.8 ng/mL
12. B21  5.8 ng/mL
13. B12  5.5 ng/mL
14. B13  5.4 ng/mL
15. B26  4.4 ng/mL
16. B16  4.1 ng/mL
17. B14  3.5 ng/mL
18. B17  3.4 ng/mL
19. B24  3.3 ng/mL
20. B29  3.3 ng/mL
21. B15  3.1 ng/mL
22. B27  2.2 ng/mL
23. B28  2.1 ng/mL
24. B20  2 ng/mL
25. B18  1.9 ng/mL

In order of rising “MPL-mutCALR AUC” value:
1. B15  48400
2. B14  49500
3. B17  52900
4. B22  55900
5. B25  57200
6. B24  58000
7. B13  58800
8. B19  60200
9. B7  62400
10. B16  63600
11. B30  63900
12. B9  64400
13. B21  65000
14. B20  67600
15. B26  68000
16. B29  68700
17. B12  69100
18. B8  69800
19. B28  71800
20. B6  73100
21. B10  73200
22. B11  75700
23. B23  81200
24. B27  81800
25. B18  84800
